This note sets out measurements from publication PMC8593083 (2021).

Assay [1] has as its target T1, nucleosome with the 185-bp DNA fragment (human, UniProt P0C0S8 2-130; P62807 2-124; P68431 2-136; P62805 2-103). As to the kind of experiment: MST; 185-bp nucleosome.
The target in assay [2] is T1, nucleosome with the 185-bp DNA fragment. Description: nucleosome with 185-bp DNA.

B1: NSD2 E1099K mutant protein (973-1226) (domain or fragment)
chain: KLQREARETQESERKPPPYKHIKVNKPYGKVQIYTADISEIPKCNCKPTDENPCGFDSECLNRMLMFECHPQVCPAGEFCQNQCFTKRQYPETKIIKTDGKGWGLVAKRDIRKGEFVNEYVGELIDKEECMARIKHAHENDITHFYMLTIDKDRIIDAGPKGNYSRFMNHSCQPNCETLKWTVNGDTRVGLFAVCDIPAGTELTFNYNLDCLGNEKTVCRCGASNCSGFLGDRPKTSTTLSSEEKGKKTKKKTR
The Kd is the equilibrium constant for the complex coming apart. A lower Kd goes with a tighter complex. For B1, the Kd in assay [1] and in assay [2] was 202 nM throughout.

B2: NSD2 T1150A mutant protein (973-1226) (domain or fragment)
chain: KLQREARETQESERKPPPYKHIKVNKPYGKVQIYTADISEIPKCNCKPTDENPCGFDSECLNRMLMFECHPQVCPAGEFCQNQCFTKRQYPETKIIKTDGKGWGLVAKRDIRKGEFVNEYVGELIDEEECMARIKHAHENDITHFYMLTIDKDRIIDAGPKGNYSRFMNHSCQPNCEALKWTVNGDTRVGLFAVCDIPAGTELTFNYNLDCLGNEKTVCRCGASNCSGFLGDRPKTSTTLSSEEKGKKTKKKTR
With B2, the Kd in assay [1] and in assay [2] was 70 nM each time.

B3: wild-type NSD2 protein (973-1226) (domain or fragment)
chain: KLQREARETQESERKPPPYKHIKVNKPYGKVQIYTADISEIPKCNCKPTDENPCGFDSECLNRMLMFECHPQVCPAGEFCQNQCFTKRQYPETKIIKTDGKGWGLVAKRDIRKGEFVNEYVGELIDEEECMARIKHAHENDITHFYMLTIDKDRIIDAGPKGNYSRFMNHSCQPNCETLKWTVNGDTRVGLFAVCDIPAGTELTFNYNLDCLGNEKTVCRCGASNCSGFLGDRPKTSTTLSSEEKGKKTKKKTR
Consider B3, for which the Kd in assay [1] and in assay [2] was 88 nM throughout.
